# Data taken from the supplement of paper PMC7877785.
# ± gives the uncertainty stated by the source.
# Assay: self-splicing fitness, log relative to wild type (ln ratio); higher = more splicing; Tetrahymena group I intron in knt gene, E. coli kanamycin selection, DiMSum; sequences stand for … in CUCUCU…GGAGGGAAAAGUUAUCAGGCAUGCACCUGGUAGCUAGUCUUUAAACCAAUAGAUUGCAUCGGUUUAAAAGGCAAGACCGUCAAAUUGCGGGAAAGGGGUCAACAGCCGUUCAGUACCAAGUCUCAGGGGAAACUUUGAGAUGGCCUUGCAAAGGGUAUGGUAAUAAGCUGACGGACAUGGUCCUAACCACGCAGCCAAGUCCUAAGUCAACAGAUCUUCUGUUGAUAUGGAUGCAGUUCACAGACUAAAUGUCGGUCGGGGAAGAUGUAUUCUUCUCAUAAGAUAUAGUCGGACCUCUCCUUAAUGGGAGCUAGCGGAUGAAGUGAUGCAACACUGGAGCCGCUGGGAACUAAUUUGUAUGCGAAAGUAUAUUGAUUAGUUUUGGAGUACUCGUGGUCG
# Procedure, shortened: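 Pooled colonies went to amplicon sequencing on an Illumina HiSeq 2500 after six replicate transformations. The plates were LB agar with 100 μg/mL carbenicillin, 50 μM IPTG and 0.2% rhamnose, with or without 25 μg/mL kanamycin, incubated overnight at 37°C or 30°C. The E. coli BL21(DE3) library had all eight P1ex-region intron nucleotides randomised, the intron placed in the knt kanamycin-resistance gene on pET-22b(+). DiMSum fitness is the error-weighted combination of replicate fold changes, kanamycin against none, normalised to wild type.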
Sequence,self-splicing fitness (ln) (30 °C),self-splicing fitness (ln) (37 °C)
UAAGAGCAAUAUUACGUGAA,-1.72 ± 0.17,-1.74 ± 0.29
CACUAGCAAUAUUACGGACG,0.105 ± 0.064,0.332 ± 0.08
AGAUAGCAAUAUUACGGUGC,-4.21 ± 0.31,-0.624 ± 0.15
AAUAAGCAAUAUUACGCAUG,-1.16 ± 0.13,-0.645 ± 0.12
CUACAGCAAUAUUACGUAUA,-2.73 ± 0.2,-1.13 ± 0.18
CUGCAGCAAUAUUACGUCCC,-1.66 ± 0.42,–
AAGUAGCAAUAUUACGCAAA,–,-1.34 ± 0.31
AAUUAGCAAUAUUACGUUGA,-2.74 ± 0.15,-1.55 ± 0.11
CCUUAGCAAUAUUACGUCCU,-2.36 ± 0.17,-2.65 ± 0.38
UAUAAGCAAUAUUACGCUGA,-1.96 ± 0.22,-1.53 ± 0.23
AACGAGCAAUAUUACGAACA,-3.15 ± 0.28,-1.9 ± 0.16
CGUGAGCAAUAUUACGGGGU,-3.62 ± 0.2,-3.32 ± 0.26
GUAGAGCAAUAUUACGUCGA,-3.08 ± 0.17,-0.919 ± 0.2
AACAAGCAAUAUUACGCCUU,-0.742 ± 0.11,-0.314 ± 0.12
AUCUAGCAAUAUUACGGGCG,-0.656 ± 0.1,-0.967 ± 0.11
CAUUAGCAAUAUUACGCAUU,-3.32 ± 0.15,-1.62 ± 0.094
CAUUAGCAAUAUUACGGUGG,-0.719 ± 0.066,0.024 ± 0.093
AACCAGCAAUAUUACGACAA,-1.14 ± 0.12,-0.155 ± 0.12
UAAAAGCAAUAUUACGUCCG,-0.59 ± 0.082,0.205 ± 0.1
UGUAAGCAAUAUUACGCUAU,-3.7 ± 0.32,-2.24 ± 0.29
UUUCAGCAAUAUUACGUCCG,-1.59 ± 0.14,-1 ± 0.21

Sequence,self-splicing fitness (ln) (30 °C),self-splicing fitness (ln) (37 °C)
GCUUAGCAAUAUUACGAGCU,-2.37 ± 0.19,-1.89 ± 0.34
UUGUAGCAAUAUUACGUUCG,-0.926 ± 0.14,-0.622 ± 0.16
ACGGAGCAAUAUUACGCGAA,-3.05 ± 0.32,-1.57 ± 0.23
CCGUAGCAAUAUUACGCCAA,-3.21 ± 0.41,-2.77 ± 0.4
AGUAAGCAAUAUUACGUAGU,-3.22 ± 0.14,-2.53 ± 0.16
UAUGAGCAAUAUUACGCGCA,-1.68 ± 0.12,-0.965 ± 0.15
UCACAGCAAUAUUACGACAG,-2.15 ± 0.082,-1.47 ± 0.088
CUGCAGCAAUAUUACGCAUG,-2.5 ± 0.12,-1.8 ± 0.14
CAGAAGCAAUAUUACGCCCG,-0.995 ± 0.15,0.147 ± 0.16
ACUCAGCAAUAUUACGGUGA,-2.73 ± 0.12,-1.23 ± 0.095
GACCAGCAAUAUUACGGGGG,-1.92 ± 0.08,-1.17 ± 0.089
UAGCAGCAAUAUUACGAUUG,-0.536 ± 0.12,-0.509 ± 0.14
AUGGAGCAAUAUUACGUUGC,-3.34 ± 0.4,-2.22 ± 0.42
ACUCAGCAAUAUUACGAAGU,-3 ± 0.14,-1.75 ± 0.14
UUGGAGCAAUAUUACGAUGG,-1.53 ± 0.21,-1.54 ± 0.21
UGGAAGCAAUAUUACGCCCG,-0.383 ± 0.22,0.191 ± 0.27
GAACAGCAAUAUUACGCCAA,-1.94 ± 0.42,-2.06 ± 0.32
GGUGAGCAAUAUUACGCAGA,-2.51 ± 0.31,-2.52 ± 0.33
UGUCAGCAAUAUUACGACGC,-2.44 ± 0.22,-1.61 ± 0.22
AACUAGCAAUAUUACGUUAG,-3.12 ± 0.17,-3.33 ± 0.26
GGAUAGCAAUAUUACGGUCG,-0.0227 ± 0.077,0.199 ± 0.094

Sequence,self-splicing fitness (ln) (30 °C),self-splicing fitness (ln) (37 °C)
AAUGAGCAAUAUUACGGCCA,–,0.411 ± 0.39
GGAAAGCAAUAUUACGGCUU,-1.08 ± 0.091,-0.393 ± 0.14
CGCAAGCAAUAUUACGGACA,-0.905 ± 0.14,-0.195 ± 0.14
GAAAAGCAAUAUUACGCCAA,-2.24 ± 0.12,-1.36 ± 0.12
ACGCAGCAAUAUUACGGUAA,-2.69 ± 0.12,-1.02 ± 0.082
ACAUAGCAAUAUUACGGGCG,-1.28 ± 0.09,-1 ± 0.096
GAAAAGCAAUAUUACGUAAU,-1.78 ± 0.066,-1.47 ± 0.087
CUACAGCAAUAUUACGAUUG,-0.678 ± 0.055,-0.0365 ± 0.078
GAACAGCAAUAUUACGAAAA,-1.77 ± 0.14,-1.65 ± 0.12
UAGUAGCAAUAUUACGGUUG,-0.955 ± 0.056,-0.642 ± 0.07
CACCAGCAAUAUUACGCGGC,-2.68 ± 0.21,-2.72 ± 0.29
CAACAGCAAUAUUACGCACG,-0.598 ± 0.067,0.246 ± 0.094
UAAAAGCAAUAUUACGCCCA,-0.0418 ± 0.15,0.358 ± 0.19
GGCCAGCAAUAUUACGGAUU,-0.639 ± 0.056,-0.524 ± 0.063
UGCAAGCAAUAUUACGAAAA,-2.32 ± 0.28,-1.64 ± 0.17
UAGGAGCAAUAUUACGGGAG,-2.69 ± 0.27,-2.96 ± 0.36
GUCGAGCAAUAUUACGCCAG,–,-2 ± 0.43
UAAAAGCAAUAUUACGGAAA,-2.5 ± 0.23,-1.72 ± 0.15
GGGUAGCAAUAUUACGCUAG,–,-1.24 ± 0.26
